Sequences and labels used below:
T1: recombinant human MASP1 active protease (amino acids 297-699, C-terminal His Tag) (human, UniProt P48740 297-699)
T1 sequence: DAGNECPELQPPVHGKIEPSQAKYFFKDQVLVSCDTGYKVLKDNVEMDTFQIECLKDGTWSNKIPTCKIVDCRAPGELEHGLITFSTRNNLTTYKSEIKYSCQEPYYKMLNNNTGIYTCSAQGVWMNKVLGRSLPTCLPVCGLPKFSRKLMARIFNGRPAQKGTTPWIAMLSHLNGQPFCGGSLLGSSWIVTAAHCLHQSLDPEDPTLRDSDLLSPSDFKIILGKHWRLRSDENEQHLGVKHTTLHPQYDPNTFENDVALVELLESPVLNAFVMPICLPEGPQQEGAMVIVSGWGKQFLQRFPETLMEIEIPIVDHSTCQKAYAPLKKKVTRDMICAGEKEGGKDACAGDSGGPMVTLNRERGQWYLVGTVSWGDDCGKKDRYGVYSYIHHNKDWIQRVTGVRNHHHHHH

B1: ((N-Me)G)-IC+SRS-((tBu)A)-PPI-(Pen)+IP-(PEG3(16atoms))-NH2 (peptide)
peptide: [Sar]ICSRS[tBuAla]PPI[Pen]IP[PEG4]-NH2
modifications: disulfide 3-11; N-terminus assumed
SMILES: CC[C@H](C)[C@H](NC(=O)CNC)C(=O)N[C@H]1CSSC(C)(C)[C@@H](C(=O)N[C@H](C(=O)N2CCC[C@H]2C(=O)NCCOCCOCCOCCOCCC(N)=O)[C@@H](C)CC)NC(=O)[C@H]([C@@H](C)CC)NC(=O)[C@@H]2CCCN2C(=O)[C@@H]2CCCN2C(=O)[C@H](CC(C)(C)C)NC(=O)[C@H](CO)NC(=O)[C@H](CCCNC(=N)N)NC(=O)[C@H](CO)NC1=O
B2: AIC+SRS-((tBu)A)-P-(Oic)-I-(Pen)+IPD-OH (peptide)
peptide: AICSRS[tBuAla]P[Oic]I[Pen]IPD-OH
modifications: disulfide 3-11; N-terminus assumed
SMILES: CC[C@H](C)[C@H](NC(=O)[C@H](C)N)C(=O)N[C@H]1CSSC(C)(C)[C@@H](C(=O)N[C@H](C(=O)N2CCC[C@H]2C(=O)N[C@@H](CC(=O)O)C(=O)O)[C@@H](C)CC)NC(=O)[C@H]([C@@H](C)CC)NC(=O)[C@@H]2C[C@@H]3CCCC[C@@H]3N2C(=O)[C@@H]2CCCN2C(=O)[C@H](CC(C)(C)C)NC(=O)[C@H](CO)NC(=O)[C@H](CCCNC(=N)N)NC(=O)[C@H](CO)NC1=O
B3: (Nle)-IC+SRS-((tBu)A)-PPI-((N-Me)C)+I-NH2 (peptide)
peptide: [Nle]ICSRS[tBuAla]PPI[NMeC]I-NH2
modifications: disulfide 3-11; N-terminus assumed
SMILES: CCCC[C@H](N)C(=O)N[C@H](C(=O)N[C@H]1CSSC[C@@H](C(=O)N[C@H](C(N)=O)[C@@H](C)CC)N(C)C(=O)[C@H]([C@@H](C)CC)NC(=O)[C@@H]2CCCN2C(=O)[C@@H]2CCCN2C(=O)[C@H](CC(C)(C)C)NC(=O)[C@H](CO)NC(=O)[C@H](CCCNC(=N)N)NC(=O)[C@H](CO)NC1=O)[C@@H](C)CC
B4: ((N-Me)A)-IC+SRS-((tBu)A)-P-(Oic)-I-(Pen)+IP-NH2 (peptide)
peptide: [NMeA]ICSRS[tBuAla]P[Oic]I[Pen]IP-NH2
modifications: disulfide 3-11; N-terminus assumed
SMILES: CC[C@H](C)[C@H](NC(=O)[C@H](C)NC)C(=O)N[C@H]1CSSC(C)(C)[C@@H](C(=O)N[C@H](C(=O)N2CCC[C@H]2C(N)=O)[C@@H](C)CC)NC(=O)[C@H]([C@@H](C)CC)NC(=O)[C@@H]2C[C@@H]3CCCC[C@@H]3N2C(=O)[C@@H]2CCCN2C(=O)[C@H](CC(C)(C)C)NC(=O)[C@H](CO)NC(=O)[C@H](CCCNC(=N)N)NC(=O)[C@H](CO)NC1=O
B5: RIC+SRS-((tBu)A)-PPI-((N-Me)C)+IPD-NH2 (peptide)
peptide: RICSRS[tBuAla]PPI[NMeC]IPD-NH2
modifications: disulfide 3-11; N-terminus assumed
SMILES: CC[C@H](C)[C@H](NC(=O)[C@@H](N)CCCNC(=N)N)C(=O)N[C@H]1CSSC[C@@H](C(=O)N[C@H](C(=O)N2CCC[C@H]2C(=O)N[C@@H](CC(=O)O)C(N)=O)[C@@H](C)CC)N(C)C(=O)[C@H]([C@@H](C)CC)NC(=O)[C@@H]2CCCN2C(=O)[C@@H]2CCCN2C(=O)[C@H](CC(C)(C)C)NC(=O)[C@H](CO)NC(=O)[C@H](CCCNC(=N)N)NC(=O)[C@H](CO)NC1=O
B6: ((N-Me)A)-IC+SRS-((tBu)A)-PPI-(Pen)+IPD-NH2 (peptide)
peptide: [NMeA]ICSRS[tBuAla]PPI[Pen]IPD-NH2
modifications: disulfide 3-11; N-terminus assumed
SMILES: CC[C@H](C)[C@H](NC(=O)[C@H](C)NC)C(=O)N[C@H]1CSSC(C)(C)[C@@H](C(=O)N[C@H](C(=O)N2CCC[C@H]2C(=O)N[C@@H](CC(=O)O)C(N)=O)[C@@H](C)CC)NC(=O)[C@H]([C@@H](C)CC)NC(=O)[C@@H]2CCCN2C(=O)[C@@H]2CCCN2C(=O)[C@H](CC(C)(C)C)NC(=O)[C@H](CO)NC(=O)[C@H](CCCNC(=N)N)NC(=O)[C@H](CO)NC1=O
B7: AIC+SRS-((tBu)A)-PPI-((N-Me)C)+I-NH2 (peptide)
peptide: AICSRS[tBuAla]PPI[NMeC]I-NH2
modifications: disulfide 3-11; N-terminus assumed
SMILES: CC[C@H](C)[C@H](NC(=O)[C@@H]1CSSC[C@H](NC(=O)[C@@H](NC(=O)[C@H](C)N)[C@@H](C)CC)C(=O)N[C@@H](CO)C(=O)N[C@@H](CCCNC(=N)N)C(=O)N[C@@H](CO)C(=O)N[C@@H](CC(C)(C)C)C(=O)N2CCC[C@H]2C(=O)N2CCC[C@H]2C(=O)N[C@@H]([C@@H](C)CC)C(=O)N1C)C(N)=O
B8: AIC+SRSLP-((6S)-5-Azaspiro[2.4]heptane-6-carboxylic acid)-I-(Pen)+IPD-NH2 (peptide)
peptide: AICSRSLP[Pro(4-spirocPr)]I[Pen]IPD-NH2
modifications: disulfide 3-11; N-terminus assumed
SMILES: CC[C@H](C)[C@H](NC(=O)[C@H](C)N)C(=O)N[C@H]1CSSC(C)(C)[C@@H](C(=O)N[C@H](C(=O)N2CCC[C@H]2C(=O)N[C@@H](CC(=O)O)C(N)=O)[C@@H](C)CC)NC(=O)[C@H]([C@@H](C)CC)NC(=O)[C@@H]2CC3(CC3)CN2C(=O)[C@@H]2CCCN2C(=O)[C@H](CC(C)C)NC(=O)[C@H](CO)NC(=O)[C@H](CCCNC(=N)N)NC(=O)[C@H](CO)NC1=O
B9: AIC+SRSLP-(Oic)-IC+IPD-OH (peptide)
peptide: AICSRSLP[Oic]ICIPD-OH
modifications: disulfide 3-11; N-terminus assumed
SMILES: CC[C@H](C)[C@H](NC(=O)[C@H](C)N)C(=O)N[C@H]1CSSC[C@@H](C(=O)N[C@H](C(=O)N2CCC[C@H]2C(=O)N[C@@H](CC(=O)O)C(=O)O)[C@@H](C)CC)NC(=O)[C@H]([C@@H](C)CC)NC(=O)[C@@H]2C[C@@H]3CCCC[C@@H]3N2C(=O)[C@@H]2CCCN2C(=O)[C@H](CC(C)C)NC(=O)[C@H](CO)NC(=O)[C@H](CCCNC(=N)N)NC(=O)[C@H](CO)NC1=O
B10: AIC+SRS-((tBu)A)-PPI-(Pen)+IPn-NH2 (peptide)
peptide: AICSRS[tBuAla]PPI[Pen]IP[dN]-NH2
modifications: disulfide 3-11; N-terminus assumed
SMILES: CC[C@H](C)[C@H](NC(=O)[C@H](C)N)C(=O)N[C@H]1CSSC(C)(C)[C@@H](C(=O)N[C@H](C(=O)N2CCC[C@H]2C(=O)N[C@H](CC(N)=O)C(N)=O)[C@@H](C)CC)NC(=O)[C@H]([C@@H](C)CC)NC(=O)[C@@H]2CCCN2C(=O)[C@@H]2CCCN2C(=O)[C@H](CC(C)(C)C)NC(=O)[C@H](CO)NC(=O)[C@H](CCCNC(=N)N)NC(=O)[C@H](CO)NC1=O
B11: ((N-Me)A)-IC+SRSLP-(Oic)-I-(Pen)+I-NH2 (peptide)
peptide: [NMeA]ICSRSLP[Oic]I[Pen]I-NH2
modifications: disulfide 3-11; N-terminus assumed
SMILES: CC[C@H](C)[C@H](NC(=O)[C@H]1NC(=O)[C@H]([C@@H](C)CC)NC(=O)[C@@H]2C[C@@H]3CCCC[C@@H]3N2C(=O)[C@@H]2CCCN2C(=O)[C@H](CC(C)C)NC(=O)[C@H](CO)NC(=O)[C@H](CCCNC(=N)N)NC(=O)[C@H](CO)NC(=O)[C@@H](NC(=O)[C@@H](NC(=O)[C@H](C)NC)[C@@H](C)CC)CSSC1(C)C)C(N)=O
B12: AIC+SRS-((tBu)A)-PPI-(Pen)+IPe-NH2 (peptide)
peptide: AICSRS[tBuAla]PPI[Pen]IP[dE]-NH2
modifications: disulfide 3-11; N-terminus assumed
SMILES: CC[C@H](C)[C@H](NC(=O)[C@H](C)N)C(=O)N[C@H]1CSSC(C)(C)[C@@H](C(=O)N[C@H](C(=O)N2CCC[C@H]2C(=O)N[C@H](CCC(=O)O)C(N)=O)[C@@H](C)CC)NC(=O)[C@H]([C@@H](C)CC)NC(=O)[C@@H]2CCCN2C(=O)[C@@H]2CCCN2C(=O)[C@H](CC(C)(C)C)NC(=O)[C@H](CO)NC(=O)[C@H](CCCNC(=N)N)NC(=O)[C@H](CO)NC1=O
B13: AIC+SRS-((tBu)A)-PPI-((N-Me)C)+(2-[(1S,2S)-1-(Amino)-2-methylbutyl]-1,3-oxazole-4-carboxylic acid)-D-NH2 (peptide)
peptide: AICSRS[tBuAla]PPI[NMeC][X17]D-NH2
modifications: disulfide 3-11; N-terminus assumed
SMILES: CC[C@H](C)[C@H](NC(=O)[C@H](C)N)C(=O)N[C@H]1CSSC[C@@H](C(=O)N[C@H](c2nc(C(=O)N[C@@H](CC(=O)O)C(N)=O)co2)[C@@H](C)CC)N(C)C(=O)[C@H]([C@@H](C)CC)NC(=O)[C@@H]2CCCN2C(=O)[C@@H]2CCCN2C(=O)[C@H](CC(C)(C)C)NC(=O)[C@H](CO)NC(=O)[C@H](CCCNC(=N)N)NC(=O)[C@H](CO)NC1=O

Numbered stars: 1 amine (or outer) side, 2 acyl side, 3 side chain; on linkers, the order of the positions; unused ones are H or OH. Bridge positions count the residues as written; N and C are the ends. Square brackets hold non-standard residues; d marks the D form. Ends that are not written are not given here. X17 = 2‑((1S,2S)-1-(Amino)-2-methylbutyl)‑1,3‑oxazole‑4‑carboxylic acid, CC[C@H](C)[C@H](N[*:1])c1nc(C(=O)[*:2])co1; PEG9(31 atoms) = 1-amino-3,6,9,12,15,18,21,24,27-nonaoxatriacontan-30-oic acid; Pro(4-spirocPr) = O=C(O)[C@@H]1CC2(CC2)CN1; Oic = O=C(O)[C@@H]1C[C@@H]2CCCC[C@@H]2N1; tBuAla = CC(C)(C)C[C@H](N)C(=O)O; PEG4 = NCCOCCOCCOCCOCCC(=O)O; Pen = CC(C)(S)[C@H](N)C(=O)O; NMeC = CN[C@@H](CS)C(=O)O; NMeA = CN[C@@H](C)C(=O)O; Nle = CCCC[C@H](N)C(=O)O; Sar = CNCC(=O)O

The target of the first assay is T1, recombinant human MASP1 active protease …. The assay is described as follows: cell-based or functional assay.
For the molecule B1, the “human MASP1 IC50” value is 1.3 nM.
Still for that read-out and setting: the result for B2 reads 1.3 nM.
For B3, the “human MASP1 IC50” value was found to be 1.5 nM.
The same measure, in the same setting: next, B4: 1.4 nM.
B5: the “human MASP1 IC50” value came out at 1.36 nM.
Take B6: the “human MASP1 IC50” value was 1.43 nM.
The same measure, in the same setting: next, B7: 1.5 nM; [Sar]ICSRSLP[Oic]I[Pen]IP[PEG9(31 atoms)]-NH2 (disulfide 3-11) [((N-Me)G)-IC+SRSLP-(Oic)-I-(Pen)+IP-(PEG9(31 atoms))-NH2]: 3.7 nM.
Same read-out and setting: the result for B8 reads 1.33 nM; that for B9, 4.65 nM.
Still for that read-out and setting: the result for B10 reads 1.4 nM; that for [2‑(Pyrrolidine)acetyl]ICSRS[tBuAla]PPI[Pen]IPD-NH2 (disulfide 3-11) [(2-(Pyrrolidine)acetyl)-IC+SRS-((tBu)A)-PPI-(Pen)+IPD-NH2], 1.3 nM.
As to B11, the “human MASP1 IC50” value came to 3.75 nM.
In the case of B12, the “human MASP1 IC50” value was 1.4 nM.
Regarding B13, the “human MASP1 IC50” value was found to be 1.4 nM.

The next assay deals with recombinant human MASP2 active protease (amino acids 297-686, C-terminal His Tag) (human, UniProt O00187 297-686). Put plainly: cell-based or functional assay.
Sequence of recombinant human MASP2 active protease (amino acids 297-686, C-terminal His Tag) (O00187 other isoform, or with tags, fused parts or gaps limits assumed): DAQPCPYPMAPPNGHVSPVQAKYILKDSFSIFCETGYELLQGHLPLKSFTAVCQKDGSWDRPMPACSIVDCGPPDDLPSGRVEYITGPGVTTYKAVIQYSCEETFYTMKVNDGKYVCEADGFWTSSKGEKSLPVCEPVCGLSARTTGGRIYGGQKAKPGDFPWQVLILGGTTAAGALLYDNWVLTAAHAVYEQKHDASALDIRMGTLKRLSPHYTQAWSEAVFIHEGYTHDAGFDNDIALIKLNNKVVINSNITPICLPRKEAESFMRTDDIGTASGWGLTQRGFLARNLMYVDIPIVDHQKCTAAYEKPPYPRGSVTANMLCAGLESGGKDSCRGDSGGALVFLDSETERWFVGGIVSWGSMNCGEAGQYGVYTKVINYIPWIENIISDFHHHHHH
For B1, the “human MASP2 IC50” value was 28 nM.
The same measure, in the same setting: the result for B2 reads 62 nM.
Same read-out and setting: the result for B3 reads 56 nM.
For the molecule B4, the “human MASP2 IC50” value worked out at 40 nM.
Consider B5, for which the “human MASP2 IC50” value was determined as 100 nM.
On to B6, for which the “human MASP2 IC50” value was found to be 98 nM.
Same read-out and setting: the result for B7 reads 100 nM; that for [Sar]ICSRSLP[Oic]I[Pen]IP[PEG9(31 atoms)]-NH2 (disulfide 3-11) [((N-Me)G)-IC+SRSLP-(Oic)-I-(Pen)+IP-(PEG9(31 atoms))-NH2], 100 nM.
As to B8, the “human MASP2 IC50” value was 18 nM.
Still for that read-out and setting: the result for B9 reads 316 nM; that for B10, 53 nM.
Still for that read-out and setting: next, [2‑(Pyrrolidine)acetyl]ICSRS[tBuAla]PPI[Pen]IPD-NH2 (disulfide 3-11) [(2-(Pyrrolidine)acetyl)-IC+SRS-((tBu)A)-PPI-(Pen)+IPD-NH2]: 87 nM.
In the case of B11, the “human MASP2 IC50” value turned out to be 195 nM.
Still for that read-out and setting: next, B12: 62 nM; B13: 720 nM.

Source of the values: patent publication US20210246166A1 (Bayer, published 2021).
